Results as given in paper PMC11648224, “RNA G-quadruplexes and calcium ions synergistically induce Tau phase transition in vitro”.

Biological target: Tau (Tau441, 2N4R) (human, UniProt P10636-8 1-441)
Experiment: SPR; 10 mM KCl; SPR (OpenSPR): 50 mM Tris-HCl pH 7.4, 10 mM KCl; biotin-RNA on streptavidin chip, 20 ul/min, 1:1 fit; temperature not stated
Details: protein: recombinant, tags: none stated (pET23a-human Tau441)

Tau (Tau441, 2N4R), sequence (P10636 other isoform, or with tags, fused parts or gaps): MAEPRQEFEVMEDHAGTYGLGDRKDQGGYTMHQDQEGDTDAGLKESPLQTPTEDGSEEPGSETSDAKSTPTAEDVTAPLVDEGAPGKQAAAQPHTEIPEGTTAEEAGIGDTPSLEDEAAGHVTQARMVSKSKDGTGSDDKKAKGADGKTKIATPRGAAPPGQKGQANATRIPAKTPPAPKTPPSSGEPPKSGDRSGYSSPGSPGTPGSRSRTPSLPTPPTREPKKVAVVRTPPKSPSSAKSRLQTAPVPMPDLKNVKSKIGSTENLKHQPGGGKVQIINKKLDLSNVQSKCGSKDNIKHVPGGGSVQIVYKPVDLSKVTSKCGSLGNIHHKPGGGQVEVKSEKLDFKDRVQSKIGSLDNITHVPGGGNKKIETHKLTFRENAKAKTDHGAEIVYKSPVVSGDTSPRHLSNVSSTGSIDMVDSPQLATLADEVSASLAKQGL

Binder	Kd	Kd (RNA G-quadruplex)
AAAAAAAAAAAAAAAAAAAAAAAA (ssRNA) [r(AAA)8]	71.7 ± 27 nM	–
CAGCAGCAGCAGCAGCAGCAGCAG (ssRNA) [r(CAG)8]	57.3 ± 13.9 nM	–
UUACCGUUACCGUUACCGUUACCG (ssRNA) [G4mt r(UUACCG)4]	52.5 ± 14.3 nM	–
UUAGGGUUAGGGUUAGGGUUAGGG (structured_RNA) [G4tr r(UUAGGG)4]	–	32.1 ± 8.38 nM
